Ends that are not written are not given here.
Target: T1, dipeptidyl-peptidase IV (DPP-IV) (Homo sapiens, UniProt P27487)
T1 construct: purchased Creative BioMart (Shirley, NY, USA); host or cells: HEK293 human cells
Experiment: DPP-IV inhibition assay on SPOT-synthesized peptides (cleaved from cellulose membrane)
Type: biochemical
Settings: peptides cleaved from cellulose membrane, concentration not known (semi-quantitative); averages of four determinations from two experiments
From the text: Recombinant human dipeptidyl-peptidase IV (DPP-IV, EC 3.4.14.5, expressed in HEK293 human cells, >95% purity, activity >5500 pmoles Gly–Pro–7-amido-4-methylcoumarin/min/µg) was purchased from Creative BioMart (Shirley, NY, USA) while polyclonal goat DPP-IV antibody and polyclonal donkey anti-goat secondary antibody conjugated to horseradish peroxidase were obtained from R&D Systems (Minneapolis, MN, USA). Pierce™ ECL western blotting substrate and protein-free (TBS) blocking buffer were from Thermo Scientific (Rockford, IL, USA). Gly–Pro–p-nitroanilide (H-Gly–Pro–p-NA∙HCl) was purchased from Bachem Americas (Torrance, CA, USA). Synthesized peptides (≥95% purity) were prepared and purified by GL Biochem (Shanghai) Ltd. (Shanghai, China).
Peptide arrays of deca-peptides spanning the entire α-lactalbumin sequence with a frame shift of one amino acid between successive sequences were prepared by Kinexus Bioinformatics Corporation (Vancouver, BC, Canada). The peptides were synthesized from the C-terminal amino acid using the SPOT technology consisting of the stepwise coupling of the Fmoc-protected amino acids and cleavage of the side chain protection groups. The α-lactalbumin-derived peptides were synthesized on trioxatridecanediamine (TOTD) and β-alanine-modified Whatman 540 cellulose membranes for the binding and inhibition assays, respectively. For the inhibition assay, the peptides were synthesized in large dots (5–7 mm in diameter) and the quality of the synthesis was verified by HPLC analysis of quality controls spots included on the membranes.
In order to determine the effect of the SPOT-synthesized peptides on the activity of the DPP-IV enzyme, the peptides were first cleaved from the cellulose support by incubating the membranes with gaseous ammonia overnight. Peptide spots (5 mm in diameter) were then punched out using a single-hole punch and transferred into microcentrifuge tubes containing 150 µL of acetonitrile (50% in 100 mM Tris–HCl buffer pH 8.0). The peptide solution (50 µL) was pipetted into a 96-well microplate with 35 µL of the chromogenic substrate Gly–Pro–p-NA (0.29 mM in 100 mM Tris–HCl buffer pH 8.0). The mixture was pre-incubated for 10 min at 37 °C, whereupon 15 µL of DPP-IV (25 mU/mL) was added and the enzymatic reaction was carried out for 30 min at 37 °C. The reaction was then terminated by addition of 100 µL of 1 M sodium acetate buffer pH 4.0 and the absorbance of the released p-nitroaniline was measured at 405 nm using a Tecan Infinite® 200 Pro microplate reader (ESBE Scientific, Markham, ON, Canada). Positive and negative controls (DPP-IV activity with no inhibitor and no DPP-IV activity, respectively) were prepared using punched peptide-free cellulose spots from the same membrane used for peptide synthesis, and adding Tris-HCl buffer in place of the sample and in place of the sample and enzyme solution, respectively.
One unit of DPP-IV was defined as the concentration of enzyme that releases 1 µmol per min of p-nitroaniline from Gly–Pro–p-NA (100 µM) at 37 °C and pH 8.0.

T1 sequence (P27487 whole entry): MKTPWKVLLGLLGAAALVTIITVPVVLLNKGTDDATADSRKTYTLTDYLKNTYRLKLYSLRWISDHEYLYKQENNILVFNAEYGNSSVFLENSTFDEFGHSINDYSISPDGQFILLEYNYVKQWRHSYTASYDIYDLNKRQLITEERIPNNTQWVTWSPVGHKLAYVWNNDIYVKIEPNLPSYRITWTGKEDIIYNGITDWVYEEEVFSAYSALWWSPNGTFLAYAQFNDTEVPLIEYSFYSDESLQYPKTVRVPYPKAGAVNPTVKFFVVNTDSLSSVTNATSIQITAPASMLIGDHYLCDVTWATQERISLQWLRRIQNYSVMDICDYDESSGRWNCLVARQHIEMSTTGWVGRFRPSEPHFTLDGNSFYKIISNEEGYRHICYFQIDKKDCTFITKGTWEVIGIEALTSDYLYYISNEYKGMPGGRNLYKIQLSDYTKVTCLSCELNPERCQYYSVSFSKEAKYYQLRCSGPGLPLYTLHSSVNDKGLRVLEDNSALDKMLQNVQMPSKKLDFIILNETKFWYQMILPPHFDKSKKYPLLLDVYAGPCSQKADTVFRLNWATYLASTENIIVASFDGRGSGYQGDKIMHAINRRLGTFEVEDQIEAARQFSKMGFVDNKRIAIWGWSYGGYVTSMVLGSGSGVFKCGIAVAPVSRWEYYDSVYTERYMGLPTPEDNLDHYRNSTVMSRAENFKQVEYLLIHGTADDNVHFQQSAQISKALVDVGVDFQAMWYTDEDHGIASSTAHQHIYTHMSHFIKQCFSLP

Row | Substance | Percent inhibition of DPP-IV activity, SPOT-synthesized deca-peptides [%]
1 | G1: α-lactalbumin-derived deca-peptide, residues 67–76 (Table S1) (PHSSNICNIS; UniProt P00711 86-95, looked up, fragment) | 11
2 | G2: α-lactalbumin-derived deca-peptide, residues 68–77 (Table S1) (HSSNICNISC; UniProt P00711 87-96, looked up, fragment) | 9
3 | G3: α-lactalbumin-derived deca-peptide, residues 69–78 (Table S1) (SSNICNISCD; UniProt P00711 88-97, looked up, fragment) | 16
4 | G4: α-lactalbumin-derived deca-peptide, residues 70–79 (Table S1) (SNICNISCDK; UniProt P00711 89-98, looked up, fragment) | 19
5 | G5: α-lactalbumin-derived deca-peptide, residues 71–80 (Table S1) (NICNISCDKF; UniProt P00711 90-99, looked up, fragment) | 25
6 | G7: α-lactalbumin-derived deca-peptide, residues 73–82 (Table S1) (CNISCDKFLD; UniProt P00711 92-101, looked up, fragment) | 17
7 | G8: α-lactalbumin-derived deca-peptide, residues 74–83 (Table S1) (NISCDKFLDD; UniProt P00711 93-102, looked up, fragment) | 19
8 | G9: α-lactalbumin-derived deca-peptide, residues 75–84 (Table S1) (ISCDKFLDDD; UniProt P00711 94-103, looked up, fragment) | 18
9 | GLFQINNKIW [E7] | 9
10 | H1: α-lactalbumin-derived deca-peptide, residues 78–87 (Table S1) (DKFLDDDLTD; UniProt P00711 97-106, looked up, fragment) | 19
11 | H2: α-lactalbumin-derived deca-peptide, residues 79–88 (Table S1) (KFLDDDLTDD; UniProt P00711 98-107, looked up, fragment) | 18
12 | H3: α-lactalbumin-derived deca-peptide, residues 80–89 (Table S1) (FLDDDLTDDI; UniProt P00711 99-108, looked up, fragment) | 18
13 | H4: α-lactalbumin-derived deca-peptide, residues 81–90 (Table S1) (LDDDLTDDIM; UniProt P00711 100-109, looked up, fragment) | 21
14 | H5: α-lactalbumin-derived deca-peptide, residues 82–91 (Table S1) (DDDITDDIMC; UniProt P00709 101-110, looked up, fragment) | 14
15 | H6: α-lactalbumin-derived deca-peptide, residues 83–92 (Table S1) (DDLTDDIMCV; UniProt P00711 102-111, looked up, fragment) | 19
16 | H7: α-lactalbumin-derived deca-peptide, residues 84–93 (Table S1) (DLTDDIMCVK; UniProt P00711 103-112, looked up, fragment) | 25
17 | H8: α-lactalbumin-derived deca-peptide, residues 85–94 (Table S1) (LTDDIMCVKK; UniProt P00711 104-113, looked up, fragment) | 20
18 | H9: α-lactalbumin-derived deca-peptide, residues 86–95 (Table S1) (TDDIMCAKKI; UniProt P00709 105-114, looked up, fragment) | 20
19 | H10: α-lactalbumin-derived deca-peptide, residues 87–96 (Table S1) (DDIMCVKKIL; UniProt P00711 106-115, looked up, fragment) | 20

Row | Substance | Percent inhibition of DPP-IV activity, SPOT-synthesized deca-peptides [%]
20 | H11: α-lactalbumin-derived deca-peptide, residues 88–97 (Table S1) (DIMCVKKILD; UniProt P00711 107-116, looked up, fragment) | 15
21 | HAEGTFTSDY [K10, HAEGTFTSDY, reference compound] | 19
22 | HKALCSEKLD [J8] | 20
23 | HTSGYDTQAI [C10] | 11
24 | I1: α-lactalbumin-derived deca-peptide, residues 89–98 (Table S1) (IMCVKKILDK; UniProt P00711 108-117, looked up, fragment) | 17
25 | I2: α-lactalbumin-derived deca-peptide, residues 90–99 (Table S1) (MCAKKILDIK; UniProt P00709 109-118, looked up, fragment) | 19
26 | I3: α-lactalbumin-derived deca-peptide, residues 91–100 (Table S1) (CVKKILDKVG; UniProt P00711 110-119, looked up, fragment) | 26
27 | I6: α-lactalbumin-derived deca-peptide, residues 94–103 (Table S1) (KILDKVGINY; UniProt P00711 113-122, looked up, fragment) | 20
28 | I7: α-lactalbumin-derived deca-peptide, residues 95–104 (Table S1) (ILDKVGINYW; UniProt P00711 114-123, looked up, fragment) | 19
29 | I8: α-lactalbumin-derived deca-peptide, residues 96–105 (Table S1) (LDKVGINYWL; UniProt P00711 115-124, looked up, fragment) | 16
30 | I9: α-lactalbumin-derived deca-peptide, residues 97–106 (Table S1) (DKVGINYWLA; UniProt P00711 116-125, looked up, fragment) | 22
31 | I10: α-lactalbumin-derived deca-peptide, residues 98–107 (Table S1) (KVGINYWLAH; UniProt P00711 117-126, looked up, fragment) | 22
32 | I11: α-lactalbumin-derived deca-peptide, residues 99–108 (Table S1) (VGINYWLAHK; UniProt P00711 118-127, looked up, fragment) | 20
33 | INNKIWCKDD [E11, INNKIWCKDD] | 21
34 | IVQNNDSTEY [D8] | 15
35 | IWCKDDQNPH [F4] | 21
36 | J1: α-lactalbumin-derived deca-peptide, residues 100–109 (Table S1) (GIDYWLAHKA; UniProt P00709 119-128, looked up, fragment) | 25
37 | J2: α-lactalbumin-derived deca-peptide, residues 101–110 (Table S1) (IDYWLAHKAL; UniProt P00709 120-129, looked up, fragment) | 18
38 | J3: α-lactalbumin-derived deca-peptide, residues 102–111 (Table S1) (DYWLAHKALC; UniProt P00709 121-130, looked up, fragment) | 15
